Reference: patent US20240117018A1

Legend:
Experiment in all cases: cell-based or functional assay
[1] = biological target: HIV-1 Env pseudovirus 0815.v3.c3 (HIV-1)
[2] = biological target: HIV-1 Env pseudovirus P0402_c2_11 (HIV-1)
[3] = biological target: HIV-1 Env pseudovirus P1981_C5_3 (HIV-1)
[4] = biological target: HIV-1 Env pseudovirus 6540.v4.c1 (HIV-1)
[5] = biological target: HIV-1 Env pseudovirus 3103.v3.c10 (HIV-1)
[6] = biological target: HIV-1 Env pseudovirus 6811.v7.c18 (HIV-1)
[7] = biological target: HIV-1 Env pseudovirus 231966.c02 (HIV-1)
[8] = biological target: Env of HIV-1 pseudovirus Ce1086_B2 (HIV-1)
[9] = biological target: Env of HIV-1 pseudovirus ZM53M.PB12 (HIV-1)
[10] = biological target: Env of HIV-1 pseudovirus Q842.d12 (HIV-1)
[11] = biological target: Env of HIV-1 pseudovirus 1006_11_C3_1601 (HIV-1)
[12] = biological target: Env of HIV-1 pseudovirus REJO4541.67 (HIV-1)
[13] = biological target: Env of HIV-1 pseudovirus ZM249M.PL1 (HIV-1)
[14] = biological target: Env of HIV-1 pseudovirus RHPA4259.7 (HIV-1)
[15] = biological target: Env of HIV-1 pseudovirus CNE53 (HIV-1)
[16] = biological target: Env of HIV-1 pseudovirus T250-4 (HIV-1)
[17] = biological target: Env of HIV-1 pseudovirus Q461.e2 (HIV-1)
[18] = biological target: Env of HIV-1 pseudovirus CAP210.2.00.E8 (HIV-1)
[19] = biological target: Env of HIV-1 pseudovirus CNE58 (HIV-1)
[20] = biological target: Env of HIV-1 pseudovirus 6535.3 (HIV-1)
[21] = biological target: Env of HIV-1 pseudovirus Ce703010054_2A2 (HIV-1)

3BNC117 (antibody)
IC50 (Titer in TZM.bl cells) [1]: 0.01 µg/mL
IC80 (Titer in TZM.bl cells) [1]: 0.02 µg/mL
IC50 (Titer in TZM.bl cells) [2]: 0.06 µg/mL
IC80 (Titer in TZM.bl cells) [2]: 0.38 µg/mL
IC50 (Titer in TZM.bl cells) [3]: 0.74 µg/mL
IC80 (Titer in TZM.bl cells) [3]: 3.62 µg/mL
IC50 (Titer in TZM.bl cells) [4]: > 50 µg/mL
IC80 (Titer in TZM.bl cells) [4]: > 50 µg/mL
IC50 (Titer in TZM.bl cells) [5]: 0.22 µg/mL
IC80 (Titer in TZM.bl cells) [5]: 0.85 µg/mL
IC50 (Titer in TZM.bl cells) [6]: 0.03 µg/mL
IC80 (Titer in TZM.bl cells) [6]: 0.17 µg/mL
IC50 (Titer in TZM.bl cells) [7]: 0.29 µg/mL
IC80 (Titer in TZM.bl cells) [7]: 2.37 µg/mL

8ANC195 (antibody)
IC50 (Titer in TZM.bl cells) [1]: 1.94 µg/mL
IC80 (Titer in TZM.bl cells) [1]: 1.94 µg/mL
IC50 (Titer in TZM.bl cells) [2]: 0.62 µg/mL
IC80 (Titer in TZM.bl cells) [2]: 6.35 µg/mL
IC50 (Titer in TZM.bl cells) [3]: 0.14 µg/mL
IC80 (Titer in TZM.bl cells) [3]: 1.15 µg/mL
IC50 (Titer in TZM.bl cells) [4]: > 50 µg/mL
IC80 (Titer in TZM.bl cells) [4]: > 50 µg/mL
IC50 (Titer in TZM.bl cells) [5]: 48.1 µg/mL
IC80 (Titer in TZM.bl cells) [5]: > 50 µg/mL
IC50 (Titer in TZM.bl cells) [6]: 5.34 µg/mL
IC80 (Titer in TZM.bl cells) [6]: 27.6 µg/mL
IC50 (Titer in TZM.bl cells) [7]: 0.54 µg/mL
IC80 (Titer in TZM.bl cells) [7]: 2.98 µg/mL

PG16 (antibody)
IC50 [8]: > 50 µg/mL
IC80 [8]: > 50 µg/mL
IC50 [9]: 0.007 µg/mL
IC80 [9]: 0.051 µg/mL
IC50 [10]: 0.032 µg/mL
IC80 [10]: > 0.25 µg/mL
IC50 [11]: > 50 µg/mL
IC80 [11]: > 50 µg/mL
IC50 [12]: 0.039 µg/mL
IC80 [12]: 13.4 µg/mL
IC50 [13]: 0.127 µg/mL
IC80 [13]: 18.1 µg/mL
IC50 [14]: 0.375 µg/mL
IC80 [14]: 3.92 µg/mL
IC50 [15]: > 50 µg/mL
IC80 [15]: > 50 µg/mL
IC50 [16]: 0.002 µg/mL
IC80 [16]: 0.005 µg/mL
IC50 [17]: 1.75 µg/mL
IC80 [17]: > 50 µg/mL
IC50 [18]: 0.01 µg/mL
IC80 [18]: 0.042 µg/mL
IC50 [19]: 0.044 µg/mL
IC80 [19]: 0.25 µg/mL
IC50 [20]: 0.653 µg/mL
IC80 [20]: > 50 µg/mL
IC50 [21]: 0.008 µg/mL
IC80 [21]: 0.053 µg/mL

VRC07 (antibody)
IC50 (Titer in TZM.bl cells) [1]: 0.015 µg/mL
IC80 (Titer in TZM.bl cells) [1]: 0.051 µg/mL
IC50 (Titer in TZM.bl cells) [2]: 0.085 µg/mL
IC80 (Titer in TZM.bl cells) [2]: 0.422 µg/mL
IC50 (Titer in TZM.bl cells) [3]: 0.213 µg/mL
IC80 (Titer in TZM.bl cells) [3]: 0.609 µg/mL
IC50 (Titer in TZM.bl cells) [4]: > 50 µg/mL
IC80 (Titer in TZM.bl cells) [4]: > 50 µg/mL
IC50 (Titer in TZM.bl cells) [5]: 0.675 µg/mL
IC80 (Titer in TZM.bl cells) [5]: 1.95 µg/mL
IC50 (Titer in TZM.bl cells) [6]: 0.093 µg/mL
IC80 (Titer in TZM.bl cells) [6]: 0.435 µg/mL
IC50 (Titer in TZM.bl cells) [7]: 0.105 µg/mL
IC80 (Titer in TZM.bl cells) [7]: 0.471 µg/mL
